Laboratory results reported in IntAct's records for PubMed 17157788.

B1: Protein AATF (Homo sapiens), Q9NY61 (parent)
chain: MAGPQPLALQLEQLLNPRPSEADPEADPEEATAARVIDRFDEGEDGEGDFLVVGSIRKLASASLLDTDKRYCGKTTSRKAWNEDHWEQTLPGSSDEEISDEEGSGDEDSEGLGLEEYDEDDLGAAEEQECGDHRESKKSRSHSAKTPGFSVQSISDFEKFTKGMDDLGSSEEEEDEESGMEEGDDAEDSQGESEEDRAGDRNSEDDGVVMTFSSVKVSEEVEKGRAVKNQIALWDQLLEGRIKLQKALLTTNQLPQPDVFPLFKDKGGPEFSSALKNSHKALKALLRSLVGLQEELLFQYPDTRYLVDGTKPNAGSEEISSEDDELVEEKKQQRRRVPAKRKLEMEDYPSFMAKRFADFTVYRNRTLQKWHDKTKLASGKLGKGFGAFERSILTQIDHILMDKERLLRRTQTKRSVYRVLGKPEPAAQPVPESLPGEPEILPQAPANAHLKDLDEEIFDDDDFYHQLLRELIERKTSSLDPNDQVAMGRQWLAIQKLRSKIHKKVDRKASKGRKLRFHVLSKLLSFMAPIDHTTMNDDARTELYRSLFGQLHPPDEGHGD

Variants of: B1
Conditions: with tf65_human RELA

Row | Variant | effect of a mutation on the interaction
1 | S143A;S189A;S477A;S510A | disrupting interaction

Variants of: B1
Conditions: with atm_human ATM

Row | Variant | effect of a mutation on the interaction
2 | S189A | disrupting interaction

Variants of: B1
Conditions: with chk2_human CHEK2, O96017
chk2_human CHEK2, O96017, sequence (O96017 whole entry): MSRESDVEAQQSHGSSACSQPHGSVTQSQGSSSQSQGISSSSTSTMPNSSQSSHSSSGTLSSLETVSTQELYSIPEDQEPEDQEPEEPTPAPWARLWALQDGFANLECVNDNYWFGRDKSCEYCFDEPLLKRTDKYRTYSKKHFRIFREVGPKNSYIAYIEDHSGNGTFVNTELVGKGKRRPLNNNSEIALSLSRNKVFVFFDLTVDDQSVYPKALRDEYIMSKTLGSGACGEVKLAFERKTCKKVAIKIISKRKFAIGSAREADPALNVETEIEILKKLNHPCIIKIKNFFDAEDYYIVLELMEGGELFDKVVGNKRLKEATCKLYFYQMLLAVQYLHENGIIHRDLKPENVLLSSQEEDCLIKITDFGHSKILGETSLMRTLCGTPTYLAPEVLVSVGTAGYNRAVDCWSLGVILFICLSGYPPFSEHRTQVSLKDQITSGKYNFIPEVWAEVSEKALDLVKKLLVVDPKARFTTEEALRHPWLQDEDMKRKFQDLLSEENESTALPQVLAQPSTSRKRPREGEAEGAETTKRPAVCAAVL

Row | Variant | effect of a mutation on the interaction
3 | S141A;K508A | decreasing interaction
4 | S143A;S477A;S510A | disrupting interaction
5 | S141A;R474A | decreasing interaction
